Measurements from patent publication US20260116991A1 (HAINAN SIMCERE ZAIMING PHARMACEUTICAL, published 2026).
Positions count from the first letter of the chain named.

B1: F4.18.4 (antibody, human IgG1, kappa, V domains shown)
VH: QVQLHQSGAEMAKPGASVNLSCKTSGFTFTDYGISWVKQRTRQGLEWIGDIYPRHINIYYNEKFKDKATLTADRSSSTAYMELRSMTSEDSAVYFCARRGTTGRGALDYWGQGTSLTVSS
VL: DILLTQSPAILSVSPGERVSFSCRASQSIGTSIHWYQQRTNGSPRLLIKYAFESISGIPSRFGGSGSRTDFTLTINSVESEDIADYYCQQTYNWPYTFGGGTKLEIKR
notes: Human-murine chimeric antibody
B2: F4.13.7 (antibody, human IgG1, kappa, V domains shown)
VH: QVQLQQPGAELVKPGASVKLSCKASGYTFTNNWVHWVKQRPGQGLEWTGMIHPDSGSTIYNEKFQSKATLTVDKSSSTAYMQLSSLTSEDSAVYYCARGYYDSSSYYAMDYWGQGTSVTVSS
VL: NIQMTQTTSSLSASLGDRVTISCSASQGIFNYLNWYQQKPDGTVKLLIYYTSSLHSGVPSRFSGSGSGTDYSLTISNLEPEDIATYYCQQYSKLPWTFGGGTKLEIKR
notes: as for B1
B3: F3.54.12 (antibody, human IgG1, kappa, V domains shown)
VH: QVQLQQSGAELVRPGASVKLSCKASGYTFTDYEMHWVKQTPVHGLEWIGAIDPETGNTAYIQKFKGKATLTTDKSSSTAYMELRSLTSEDSAVYYCTRFYSYSHWGQGTTLTVSS
VL: DVVMTQTPLSLPVSLGDQASISCRSSQSLVHSNGNTYLHWYLQKPGQSPKLLIYKVSNRFSGVPDRFSGSSSGTDFTLKISRVEAEDLGVYFCSQNTHVPPTFGGGTKLEIKR
notes: as for B1
B4: F3.81.19 (antibody, human IgG1, kappa, V domains shown)
VH: B3 VH with A50T, I61N, T72A, F99P, Y102L, S103T, H104Y, T110L, L111V, S115A
VL: DVLLTQTPLSLPVSLGDQASISCRSSQSFVHSNGDTYLQWYLQKPGQSPKLLIYKVSNRFSGVPDRFSGSGSGTDFTLKISRVEAEDLGVYYCFQGSHVPYTFGSGTKLEIKR
notes: as for B1
B5: F4.26.1 (antibody, human IgG1, kappa, V domains shown)
VH: QVQLKQSGPGLVQPSQSLSITCTVSGFSLTSYGVHWVRQSPGKGLEWLGVIWSSGNTDYNAVLISRLSIKKDDSKSQVFFKMNSPQVDDSAIYYCGRNGGWLLRGFMDFWGQGTSVTVSS
VL: B3 VL with V30L, K44R, P45S, K50N, S70G, S71G, V90I, N96S, P101W
notes: as for B1
B6: F4.21.16 (antibody, human IgG1, kappa, V domains shown)
VH: DVQLQESGPGLVKPSQSLSLTCSVTGYSITSGYYWNWIRQFPGNKLEWMGYISYDVTVNYNPSLKNRISITRDTSKNQFFLKLNSVTTEDTATYYCATITSVASMDHWGQGTSVTVSS
VL: DILMTQTPLSLPVSLGDQASISCRSSQNIVHRNGNTYLEWYLQKPGQSPKLLLYKVSNRFSGVPDRFSGSGSGTDFTLKISRVEAEDLGIYYCFQGSHFPFTFGSGTKLEIKR
notes: as for B1
B7: hAb001H1L1b (antibody, human IgG1, V domains shown)
VH: EVQLVESGGGLVQPGGSLRLSCAASGFSFNTNAMNWVRQAPGKGLEWVGRIRSKSNNYATYYADSVKDRFTISRDDSKNSLYLQMNSLKTEDTAVYYCVRDGYYVLFAYWGQGTLVTVSS
VL: DIVMTQTPLSLPVTPGEPASISCRFSQSIVNSNANTYLEWFLQKPGQSPQLLIYKVSNRFSGVPDRFSGSGSGTDFTLKISRVEAEDVGVYYCFQGSHVPFTFGQGTKLEIK
notes: Humanized F2.169.2
B8: hAb006LH1L1b (antibody, human IgG1, V domains shown)
VH: EVQLVQSGAEVKKPGSSVKVSCKASGYTFSDYEIHWVRQAPGQGLEWMGAIDPKTGNTAYNQKFMGRVTITADKSTSTAYMELSSLRSEDTAVYYCTRYFSFAYWGQGTLVTVSS
VL: B7 VL with F25S, S28T, I29F, N31H, E39Q, F41Y, F101Y
notes: Humanized F3.38.7
B9: hAb003LH1L1b (antibody, human IgG1, V domains shown)
VH: B8 VH with I34M, A50T, K54E, N61T, G66D, Y99G, F100Y, A103T
VL: B7 VL with F25S, S28N, N31H, A34R, E39Q, F41Y, Y54F
notes: Humanized F2.154.1

Biological target: T1, human GPC3-His protein (human, UniProt P51654 25-559)
T1 construct: also called human GPC3 protein; not shown: His tag
Test: SPR, antibody captured on Protein A chip, human GPC3-His analyte;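 note: measured at 25 °C flow cell, human GPC3-His injected at five concentrations up to 200 nM, 240 s association, up to 600 s dissociation, double-referenced, fitted to Langmuir 1:1 model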

| Binder | Kd | koff | kon |
| --- | --- | --- | --- |
| B1 | 5.08 nM | 0.000443 s⁻¹ | 87100 M⁻¹ s⁻¹ |
| B2 | 32.3 nM | 0.00156 s⁻¹ | 48400 M⁻¹ s⁻¹ |
| B3 | 4.09 nM | 0.00112 s⁻¹ | 275000 M⁻¹ s⁻¹ |
| B4 | 0.545 nM | 0.000231 s⁻¹ | 424000 M⁻¹ s⁻¹ |
| B5 | 2.34 nM | 0.000461 s⁻¹ | 197000 M⁻¹ s⁻¹ |
| B6 | 6.58 nM | 0.000267 s⁻¹ | 40600 M⁻¹ s⁻¹ |

Biological target: T2, monkey GPC3 on HEK293T-monkey GPC3 cells (monkey)
T2 construct: whole, on cells
Test: FACS on HEK293T-monkey GPC3 cells

| Binder | EC50 | Max MFI |
| --- | --- | --- |
| B7 | 1.54 nM | 32900 MFI |
| B8 | 1.73 nM | 31800 MFI |
| B9 | 1.46 nM | 28400 MFI |

Biological target: T3, monkey GPC3 on HEK293T-monkey GPC3 cells (monkey)
T3 construct: whole, on cells
Test: FACS on HEK293T-monkey GPC3 cells
Description: The desired cells were expanded to a logarithmic growth phase in a T-75 cell culture flask, the medium was removed by pipetting, and the cells were washed twice with a PBS buffer, and digested with trypsin. Then a complete medium was added to stop the digestion, and the cells were blown into a single cell suspension. After counting, the cells were centrifuged, and the cell pellet was resuspended with an FACS buffer (PBS+2% fetal bovine serum) to 2×10⁶ cells/mL. The cell resuspension solution was added to a 96-well FACS reaction plate at 50 μl/well, and a chimeric antibody sample to be tested was added at 50 μl/well for incubation at 4° C. for 1 h. […] After the plate was centrifuged and washed 3 times with a PBS buffer, 100 μl of the resulting solution was assayed and analyzed by FACS (FACS Canto™, purchased from BD Biosciences). Data analysis was performed by software (FlowJo) to obtain the mean fluorescence intensity (MFI) of the cells. Then, analysis was performed by software (GraphPad Prism8), data were fitted, and EC₅₀ values were calculated.

| Binder | EC50 | Max MFI |
| --- | --- | --- |
| B1 | 0.89 nM | 52600 MFI |
| B2 | 1.1 nM | 44100 MFI |
| B3 | 0.72 nM | 115000 MFI |
| B4 | 2.58 nM | 106000 MFI |
| B5 | 1.21 nM | 50500 MFI |
| B6 | 3.25 nM | 50900 MFI |

Biological target: T4, monkey GPC3-His protein (monkey)
T4 construct: Bought recombinant protein; also called monkey GPC3 protein
Test: SPR, antibody captured on Protein A chip, monkey GPC3-His analyte;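 note: run at 25 °C with 240 s association and up to 600 s dissociation, double-referenced, kinetics fitted to a 1:1 Langmuir binding model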
Description: The flow cell was set at 25° C. The sample block was set at 16° C. Both were pretreated with the running buffer. In each cycle, first, the antibody to be tested was captured using the Protein A chip, and then a single concentration of GPC3 antigen protein was injected. […] The association was determined by injecting different concentrations of human GPC3-His in the solution and maintaining for 240 s, wherein the flow rate was 30 μL/min, and the protein was diluted at a 1:1 dilution ratio from 200 nM to obtain 5 concentrations in total. The dissociation phase was monitored for up to 600 s and triggered by switching from the sample solution to the running buffer. The surface was regenerated by washing with 10 mM glycine solution (pH 1.5) at a flow rate of 30 μL/min for 30 s. The difference in bulk refractive index was corrected by subtracting the responses obtained from the goat anti-human Fc surface. Blank injections (double reference) were also subtracted. To calculate the apparent KD and other kinetic parameters, the Langmuir 1:1 model was used.

| Binder | Kd | koff | kon |
| --- | --- | --- | --- |
| B1 | 4.65 nM | 0.000552 s⁻¹ | 119000 M⁻¹ s⁻¹ |
| B2 | 31.4 nM | 0.00264 s⁻¹ | 84000 M⁻¹ s⁻¹ |
| B3 | 2.17 nM | 0.00117 s⁻¹ | 541000 M⁻¹ s⁻¹ |
| B4 | 0.415 nM | 0.000261 s⁻¹ | 631000 M⁻¹ s⁻¹ |
| B5 | 1.38 nM | 0.000587 s⁻¹ | 425000 M⁻¹ s⁻¹ |
| B6 | 7.81 nM | 0.000303 s⁻¹ | 38800 M⁻¹ s⁻¹ |

Biological target: T5, human GPC3-His protein (human, UniProt P51654 25-559, limits assumed)
T5 construct: also called human GPC3 protein; not shown: His tag
Test: SPR, antibody captured on Protein A chip, human GPC3-His injected, 1:1 Langmuir model;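 note: flow cell at 25 °C, antigen injected for 240 s at five twofold dilutions starting at 200 nM, dissociation followed up to 600 s, double-referenced sensorgrams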

| Binder | Kd | koff | kon |
| --- | --- | --- | --- |
| B7 | 19.8 nM | 0.937 s⁻¹ | 4.74e+07 M⁻¹ s⁻¹ |
| B8 | 7.41 nM | 0.00125 s⁻¹ | 168000 M⁻¹ s⁻¹ |
| B9 | 1.68 nM | 0.000415 s⁻¹ | 246000 M⁻¹ s⁻¹ |

Biological target: T4, monkey GPC3-His protein
Test: ELISA, monkey GPC3-His coated;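 note: Plate-coated antigen at 1 µg/mL, antibody binding 2 h at 37 °C, detected with HRP-labeled secondary antibody and TMB, absorbance at 450 nm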
Description: The specific method is described as follows: The antigen protein was diluted with PBS to a final concentration of 1 μg/mL, and the diluent was added to a 96-well ELISA plate at 50 μL/well. The plate was sealed with a plastic film and incubated at 4° C. overnight, washed twice with PBS the next day, and a blocking solution [PBS+2% (w/w) BSA] was added for blocking at room temperature for 2 h. […] After incubation at 37° C. for 2 h, the plate was washed 3 times with PBS. A horseradish peroxidase (HRP)-labeled secondary antibody (purchased from Merck, Cat. No. AP113P) was added for incubation at 37° C. for 1 h, and the plate was washed 5 times with PBS. A TMB substrate was added at 50 μL/well for incubation at room temperature for 10 min, then a stop solution (1.0M HCl) was added at 50 μL/well. An ELISA plate reader (Multimode Plate Reader, EnSight, purchased from Perkin Elmer) was used to read OD_{450 nm} values, with results as shown in Table 4 to Table 6, FIG. 1A, FIG. 1B, and FIG. 1C.

| Binder | OD450 at 0.0001 nM | OD450 at 0.001 nM | OD450 at 0.01 nM | OD450 at 0.1 nM | OD450 at 1 nM | OD450 at 10 nM | OD450 at 100 nM |
| --- | --- | --- | --- | --- | --- | --- | --- |
| B1 | 0.14 OD450 | 0.12 OD450 | 0.14 OD450 | 0.85 OD450 | 0.77 OD450 | 1.32 OD450 | 1.9 OD450 |
| B2 | 0.05 OD450 | 0.08 OD450 | 0.36 OD450 | 1.55 OD450 | 2.34 OD450 | 2.4 OD450 | 2.44 OD450 |
| B3 | 0.08 OD450 | 0.1 OD450 | 0.41 OD450 | 1.57 OD450 | 2.21 OD450 | 2.32 OD450 | 2.76 OD450 |
| B4 | 0.05 OD450 | 0.06 OD450 | 0.16 OD450 | 0.62 OD450 | 1.96 OD450 | 2.55 OD450 | 2.49 OD450 |
| B5 | 0.27 OD450 | 0.07 OD450 | 0.18 OD450 | 0.89 OD450 | 1.38 OD450 | 1.88 OD450 | 1.5 OD450 |
| B6 | 0.04 OD450 | 0.06 OD450 | 0.05 OD450 | 0.1 OD450 | 1.41 OD450 | 1.65 OD450 | 1.08 OD450 |
